Experimental findings from article PMC10925418, “Survivin Mediates Mitotic Onset in HeLa Cells Through Activation of the Cdk1-Cdc25B Axis” (Research Square, 2024) are described below.

Sequences and labels used below:
B3: SUR A55-D70 peptide (peptide)
peptide: AQCFFCFKELEGWEPD
modifications: not fully specified (N-terminus); cysteine pairing not given here
notes: Survivin residues Ala55 through Asp70; the methods describe only one form of the peptide (biotin and tat at the N-terminus); also called Survivin peptide; Survivin A55-D70; source: synthetic peptide (f-BOC chemistry, HPLC purified; Peptron or W. M. Keck Biotechnology Research Center, Yale)
B4: His-Cdk1 1–85 (domain or fragment)
chain: not shown
notes: Cdk1, human, residues 1-85, deletion mutant made by PCR; source: E. coli BL21, purified (Ni2+-charged agarose); not shown: His-tag, N-terminal, kept

Conditions in all cases: both partners purified
For assay [1], the target named is B3. Kind of assay: pull-down; streptavidin-binding assay: 50 ug biotinylated peptide bound to streptavidin agarose, mixed with recombinant His-Cdk1 fragments; Western blotting. For orientation: A western blot detects proteins with antibodies after separation by electrophoresis.
Assay [2] deals with T1, His-Cdk1 (human, UniProt P06493 1-297).
T1 construct: Cdk1, human, full-length cDNA BC014563 subcloned into pRSETa; also called recombinant His-Cdk1; Cdk1 protein kinase; source: E. coli BL21, purified (Ni2+-charged agarose); not shown: His-tag, N-terminal, kept
T1 sequence (P06493 whole entry): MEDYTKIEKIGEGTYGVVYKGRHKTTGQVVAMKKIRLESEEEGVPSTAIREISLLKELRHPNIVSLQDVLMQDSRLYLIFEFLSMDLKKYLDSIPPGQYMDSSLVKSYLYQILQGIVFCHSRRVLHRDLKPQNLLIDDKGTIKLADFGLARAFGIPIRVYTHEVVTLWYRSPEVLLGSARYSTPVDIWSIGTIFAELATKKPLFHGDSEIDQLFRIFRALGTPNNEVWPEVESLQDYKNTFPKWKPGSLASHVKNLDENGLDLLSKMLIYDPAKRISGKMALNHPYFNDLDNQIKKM
The assay can be described thus: pull-down; GST pull-down: His-tagged recombinant proteins mixed with GST, GST-Survivin or GST-Survivin mutants; Western blotting.

Assay [3] has as its target T2, His-Cdk1 1–183 (human, UniProt P06493 1-183).
T2 construct: source: E. coli BL21, purified (Ni2+-charged agarose); not shown: His-tag, N-terminal, kept
Kind of assay: pull-down; streptavidin-binding assay: 50 ug biotinylated peptide bound to streptavidin agarose, mixed with recombinant His-Cdk1 fragments; Western blotting.

Assay [4] addresses B4. The description is as above.
Assay [5] addresses T3, His-Cdk1 9–85 (human, UniProt P06493 9-85).
T3 construct: Cdk1, human, residues 9-85, deletion mutant made by PCR; source: E. coli BL21, purified (Ni2+-charged agarose); not shown: His-tag, N-terminal, kept
Described as above.

Assay [6] concerns the target T4, GST-Survivin (UniProt O15392 1-142).
T4 construct: Survivin; the printed peptide 55-70 fits human Survivin; also called recombinant Survivin; pGST-Survivin product; source: E. coli BL21, purified (glutathione agarose); not shown: GST, N-terminal, kept
Kind of assay: pull-down; GST pull-down: His-tagged recombinant proteins mixed with GST, GST-Survivin or GST-Survivin mutants; Western blotting.

Where no end group is shown, it is not given here.

T3 sequence (P06493 9-85): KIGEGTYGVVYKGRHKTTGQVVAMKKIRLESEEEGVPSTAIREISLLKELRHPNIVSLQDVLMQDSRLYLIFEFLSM
T2 sequence (P06493 1-183): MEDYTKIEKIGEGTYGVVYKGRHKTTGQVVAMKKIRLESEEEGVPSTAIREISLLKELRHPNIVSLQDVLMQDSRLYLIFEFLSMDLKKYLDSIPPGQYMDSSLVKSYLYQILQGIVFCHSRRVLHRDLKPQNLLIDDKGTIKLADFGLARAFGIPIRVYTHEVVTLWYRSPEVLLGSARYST

B1: His-Cdk1 36–85 (domain or fragment)
chain: not shown
notes: Cdk1, human, residues 36-85, deletion mutant made by PCR; source: E. coli BL21, purified (Ni2+-charged agarose); not shown: His-tag, N-terminal, kept
Regarding B1, the binding result in assay [1] was “binds”.

B2: GST-Survivin 1-70 (domain or fragment, UniProt O15392 1-70, looked up)
chain: MGAPTLPPAWQPFLKDHRISTFKNWPFLEGCACTPERMAEAGFIHCPTENEPDLAQCFFCFKELEGWEPD
notes: Survivin residues 1-70, deletion mutant made by PCR; also called Survivin N-terminus (first 70 amino acids); source: E. coli BL21, purified (glutathione agarose); not shown: GST, N-terminal, kept
Regarding B2, the binding result in assay [2] was “binds”.

Take B3: the binding result in assay [3], in assay [4] and in assay [5] was “binds” each time.

On to B4, for which the binding result in assay [6] is reported as “binds”.
